The target of this assay is FANCD2 (human, UniProt Q9BXW9 1-1451). Put plainly: cryo-EM structure.
Sequence of FANCD2 (Q9BXW9 whole entry): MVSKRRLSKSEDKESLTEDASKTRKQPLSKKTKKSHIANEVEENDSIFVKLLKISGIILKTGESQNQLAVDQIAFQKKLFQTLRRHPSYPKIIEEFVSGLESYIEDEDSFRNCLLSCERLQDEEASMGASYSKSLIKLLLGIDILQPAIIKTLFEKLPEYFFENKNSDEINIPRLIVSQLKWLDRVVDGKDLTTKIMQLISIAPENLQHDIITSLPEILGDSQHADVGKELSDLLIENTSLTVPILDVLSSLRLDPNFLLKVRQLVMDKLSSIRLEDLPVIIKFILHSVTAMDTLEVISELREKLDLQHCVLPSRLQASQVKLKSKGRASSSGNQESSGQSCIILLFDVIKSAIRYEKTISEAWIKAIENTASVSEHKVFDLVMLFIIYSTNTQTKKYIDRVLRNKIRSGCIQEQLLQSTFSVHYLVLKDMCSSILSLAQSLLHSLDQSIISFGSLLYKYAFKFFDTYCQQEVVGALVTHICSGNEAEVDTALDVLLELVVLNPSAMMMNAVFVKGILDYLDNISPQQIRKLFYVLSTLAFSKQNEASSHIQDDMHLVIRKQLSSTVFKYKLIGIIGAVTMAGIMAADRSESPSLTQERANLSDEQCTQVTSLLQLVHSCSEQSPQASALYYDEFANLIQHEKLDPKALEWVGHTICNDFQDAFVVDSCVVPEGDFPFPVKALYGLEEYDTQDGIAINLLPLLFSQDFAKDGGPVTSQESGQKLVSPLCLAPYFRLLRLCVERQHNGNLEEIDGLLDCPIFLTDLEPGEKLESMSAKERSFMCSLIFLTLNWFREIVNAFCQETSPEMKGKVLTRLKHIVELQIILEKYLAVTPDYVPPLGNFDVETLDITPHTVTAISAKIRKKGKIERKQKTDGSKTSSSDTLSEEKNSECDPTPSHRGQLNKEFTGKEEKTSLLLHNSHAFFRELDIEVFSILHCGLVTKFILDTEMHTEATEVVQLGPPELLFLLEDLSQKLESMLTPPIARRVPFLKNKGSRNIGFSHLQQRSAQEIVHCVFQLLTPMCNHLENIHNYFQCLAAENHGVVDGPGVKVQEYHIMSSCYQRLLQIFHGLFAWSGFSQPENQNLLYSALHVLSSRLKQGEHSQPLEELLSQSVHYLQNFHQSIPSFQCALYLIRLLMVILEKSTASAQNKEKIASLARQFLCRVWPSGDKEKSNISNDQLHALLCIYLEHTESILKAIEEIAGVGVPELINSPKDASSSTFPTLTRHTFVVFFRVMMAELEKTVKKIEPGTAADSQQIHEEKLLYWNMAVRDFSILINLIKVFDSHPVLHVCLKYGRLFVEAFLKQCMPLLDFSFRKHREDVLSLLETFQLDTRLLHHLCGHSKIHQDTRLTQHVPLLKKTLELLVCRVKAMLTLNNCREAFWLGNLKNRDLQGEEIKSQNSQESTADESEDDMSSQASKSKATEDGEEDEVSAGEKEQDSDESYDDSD

B1: ubiquitinated His6-V5-FANCI (natural protein)
chain 1: MDQKILSLAAEKTADKLQEFLQTLREGDLTNLLQNQAVKGKVAGALLRAIFKGSPCSEEAGTLRRRKIYTCCIQLVESGDLQKEIASEIIGLLMLEAHHFPGPLLVELANEFISAVREGSLVNGKSLELLPIILTALATKKENLAYGKGVLSGEECKKQLINTLCSGRWDQQYVIQLTSMFKDVPLTAEEVEFVVEKALSMFSKMNLQEIPPLVYQLLVLSSKGSRKSVLEGIIAFFSALDKQHNEEQSGDELLDVVTVPSGELRHVEGTIILHIVFAIKLDYELGRELVKHLKVGQQGDSNNNLSPFSIALLLSVTRIQRFQDQVLDLLKTSVVKSFKDLQLLQGSKFLQNLVPHRSYVSTMILEVVKNSVHSWDHVTQGLVELGFILMDSYGPKKVLDGKTIETSPSLSRMPNQHACKLGANILLETFKIHEMIRQEILEQVLNRVVTRASSPISHFLDLLSNIVMYAPLVLQSCSSKVTEAFDYLSFLPLQTVQRLLKAVQPLLKVSMSMRDCLILVLRKAMFANQLDARKSAVAGFLLLLKNFKVLGSLSSSQCSQSLSVSQVHVDVHSHYNSVANETFCLEIMDSLRRCLSQQADVRLMLYEGFYDVLRRNSQLANSVMQTLLSQLKQFYEPKPDLLPPLKLEACILTQGDKISLQEPLDYLLCCIQHCLAWYKNTVIPLQQGEEEEEEEEAFYEDLDDILESITNRMIKSELEDFELDKSADFSQSTSIGIKNNICAFLVMGVCEVLIEYNFSISSFSKNRFEDILSLFMCYKKLSDILNEKAGKAKTKMANKTSDSLLSMKFVSSLLTALFRDSIQSHQESLSVLRSSNEFMRYAVNVALQKVQQLKETGHVSGPDGQNPEKIFQNLCDITRVLLWRYTSIPTSVEESGKKEKGKSISLLCLEGLQKIFSAVQQFYQPKIQQFLRALDVTDKEGEEREDADVSVTQRTAFQIRQFQRSLLNLLSSQEEDFNSKEALLLVTVLTSLSKLLEPSSPQFVQMLSWTSKICKENSREDALFCKSLMNLLFSLHVSYKSPVILLRDLSQDIHGHLGDIDQDVEVEKTNHFAIVNLRTAAPTVCLLVLSQAEKVLEEVDWLITKLKGQVSQETLSEEASSQATLPNQPVEKAIIMQLGTLLTFFHELVQTALPSGSCVDTLLKDLCKMYTTLTALVRYYLQVCQSSGGIPKNMEKLVKLSGSHLTPLCYSFISYVQNKSKSLNYTGEKKEKPAAVATAMARVLRETKPIPNLIFAIEQYEKFLIHLSKKSKVNLMQHMKLSTSRDFKIKGNILDMVLREDGEDENEEGTASEHGGQNKEPAKKKRKK
chain 2: […]
As for B1, the binding result is listed as “binds”.

Values taken from doi:10.1101/2022.04.07.487446 (bioRxiv, 2022).
